The record followed here is the RNAGym collection of RNA variant scans (doi:10.1073/pnas.2313332121).

Sequences and labels used below:
B1: TPR 5TU (parent)
chain: GGAUCUUCUCGAUCUAACAAAAAAGACAAAUCUGCCACAAAGCUUGAGAGCAUCUUCGGAUGCAGAGGCGGCAGCCUUCGGUGGCGCGAUAGCGCCAACGUUCUCAACUAUGACACGCAAAACGCGUGCUCCGUUGAAUGGAGUUUAUCAUG

This sample holds only a part of the variants without activity.

Variants of B1 are the subject of the data set. Description: polymerase ribozyme fitness, log enrichment relative to wild type (log ratio); higher = more active; in vitro selection for triplet polymerase activity. In a few lines: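 Fitness measures genotype enrichment against wild-type enrichment on a logarithmic scale, with inverse-variance-weighted averaging of replicates. The logarithm is base 2, and genotypes were kept only with ≥10 input reads and ≥1 read per output in Illumina sequencing. The sequenced libraries came from one triplicate in vitro selection round, including frozen incubation at −7 °C, of PCR-built, transcribed mutant libraries of each subunit of a heterodimeric triplet polymerase ribozyme.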
In the case of C18G C96U, the “polymerase ribozyme fitness (log ratio)” value was -1.12.

In the case of A17U G94C C95U C105U, the “polymerase ribozyme fitness (log ratio)” value is -0.248.

U7C C8G A30C C85G U134A: the “polymerase ribozyme fitness (log ratio)” value is not above -4.2.

U7A A24G C32A G88C C99G U104G G140C: the “polymerase ribozyme fitness (log ratio)” value was -4.07.

As for C32U A52C U55G C57A, the “polymerase ribozyme fitness (log ratio)” value is -3.11.

In the case of C5U A22U C85A U135A, the “polymerase ribozyme fitness (log ratio)” value was -0.0168.

For the variant U33A U45A G68U C87A U127C A137U, the “polymerase ribozyme fitness (log ratio)” value was not above -4.2.

Consider A26U C87G, for which the “polymerase ribozyme fitness (log ratio)” value is not above -4.2.

As for C32U G58C C63A, the “polymerase ribozyme fitness (log ratio)” value was -3.84.

Regarding A23U U53G, the “polymerase ribozyme fitness (log ratio)” value was not above -4.2.

As to A110G U134G, the “polymerase ribozyme fitness (log ratio)” value was -4.07.

In the case of G81C G117C A138G, the “polymerase ribozyme fitness (log ratio)” value was -4.02.

For the variant A16C A24G A47C C85G A97C A120G, the “polymerase ribozyme fitness (log ratio)” value was not above -4.2.

For C5A G11C C32G G92U C99A C125G G136U G141U, the “polymerase ribozyme fitness (log ratio)” value is not above -4.2.

Take C5G G67U G70C G86A C132G: the “polymerase ribozyme fitness (log ratio)” value was not above -4.2.

Regarding A28U U33G C43G A47C U55G U56A G84A C87G A106G A107C G133U G140U, the “polymerase ribozyme fitness (log ratio)” value was not above -4.2.

Turning to G83A A150U, the “polymerase ribozyme fitness (log ratio)” value is 0.356.

As for A22U C27G C57G U61A C95U U104G U145G, the “polymerase ribozyme fitness (log ratio)” value is not above -4.2.

In the case of C8A A30U G71A U82G C95A C103G U134A G141U, the “polymerase ribozyme fitness (log ratio)” value is not above -4.2.

Turning to A16U A26C C54A A119C G133C U135A, the “polymerase ribozyme fitness (log ratio)” value is not above -4.2.

Regarding A22U A106G, the “polymerase ribozyme fitness (log ratio)” value was 1.21.

Consider C5U A16C G81A U82A G126C, for which the “polymerase ribozyme fitness (log ratio)” value was -0.899.

For the variant C95U U146G, the “polymerase ribozyme fitness (log ratio)” value is -1.04.

Turning to C5A C27A C87A U109A G126A, the “polymerase ribozyme fitness (log ratio)” value is not above -4.2.

As to A3U A19U, the “polymerase ribozyme fitness (log ratio)” value was -0.0693.

On to A21U A24U A52G G71U U90C C123U G126U U144A A147C U151A, for which the “polymerase ribozyme fitness (log ratio)” value was not above -4.2.

Regarding A3U C93U C118U, the “polymerase ribozyme fitness (log ratio)” value was -1.3.

As to U9G U13G A22C A28U A41C C76U G92A U148A, the “polymerase ribozyme fitness (log ratio)” value was not above -4.2.

Consider A37C C87U, for which the “polymerase ribozyme fitness (log ratio)” value was -0.492.

As to A22U C38U C51U U53A C54A C85G, the “polymerase ribozyme fitness (log ratio)” value is not above -4.2.

With U4G A20G C35U G94C A97G C118A A137G A142U, the “polymerase ribozyme fitness (log ratio)” value is -4.11.

With G84A U102G A122U, the “polymerase ribozyme fitness (log ratio)” value is -2.74.

In the case of A41C C85U, the “polymerase ribozyme fitness (log ratio)” value is -1.29.

For the variant A24U A113C, the “polymerase ribozyme fitness (log ratio)” value was -3.05.

G58A C99U: the “polymerase ribozyme fitness (log ratio)” value is -0.207.

Consider U4A C27U G83C G117A A122G U146A, for which the “polymerase ribozyme fitness (log ratio)” value is -3.14.

A37C G92U: the “polymerase ribozyme fitness (log ratio)” value was -0.276.

A22U A39U U44G C51A G141C U146C A150G: the “polymerase ribozyme fitness (log ratio)” value was not above -4.2.

Regarding U13G A22G A24U A28G C76U U78A C79G G81A U102G C114A, the “polymerase ribozyme fitness (log ratio)” value was not above -4.2.

On to U144A, for which the “polymerase ribozyme fitness (log ratio)” value is -0.043.

Take U53A A73G G74C C85A U90C: the “polymerase ribozyme fitness (log ratio)” value was not above -4.2.

For the variant C87U C108G U145G, the “polymerase ribozyme fitness (log ratio)” value is not above -4.2.

As to U15G U31G A40U C57A C95G C125U G140U, the “polymerase ribozyme fitness (log ratio)” value was not above -4.2.

With A47G G62U U145C U151A, the “polymerase ribozyme fitness (log ratio)” value was not above -4.2.

On to A28U C87U A106U C108U A119C U148C, for which the “polymerase ribozyme fitness (log ratio)” value was not above -4.2.

With G50C C87U G100A, the “polymerase ribozyme fitness (log ratio)” value was not above -4.2.

Regarding C14G U56A A73G U135C, the “polymerase ribozyme fitness (log ratio)” value was -4.12.

With U7A U45C G50U G83A A89U G94C A115U G141A, the “polymerase ribozyme fitness (log ratio)” value was not above -4.2.

With C57G G88U G94A, the “polymerase ribozyme fitness (log ratio)” value was not above -4.2.

With A30G G86A, the “polymerase ribozyme fitness (log ratio)” value is -3.45.

For U53G C75G C76U C96A A115C, the “polymerase ribozyme fitness (log ratio)” value is not above -4.2.

Take U53A G81C C85G C108U A138G A147G A150U G152U: the “polymerase ribozyme fitness (log ratio)” value was -3.91.

On to G50C C93A C103G A113G A115U G140C, for which the “polymerase ribozyme fitness (log ratio)” value was not above -4.2.

With G74C C116G A150U, the “polymerase ribozyme fitness (log ratio)” value was not above -4.2.

In the case of G68C A89C C96A A113G G124C U134C, the “polymerase ribozyme fitness (log ratio)” value is not above -4.2.

For U77A G94C A98U, the “polymerase ribozyme fitness (log ratio)” value is not above -4.2.

With U4C C85A, the “polymerase ribozyme fitness (log ratio)” value is -1.34.

With U9A C27U C36A G42C C69A G80A G136U G141C, the “polymerase ribozyme fitness (log ratio)” value was not above -4.2.

For the variant G46A C96U U134G A138G, the “polymerase ribozyme fitness (log ratio)” value was not above -4.2.

Regarding C51A C96U A97U, the “polymerase ribozyme fitness (log ratio)” value is -2.73.

As to U56A U101G, the “polymerase ribozyme fitness (log ratio)” value came out at 0.0793.

In the case of A12U C85U G136U, the “polymerase ribozyme fitness (log ratio)” value is -3.16.

In the case of C108G G143C A147C, the “polymerase ribozyme fitness (log ratio)” value was not above -4.2.

With C51U U53A A110C C116A, the “polymerase ribozyme fitness (log ratio)” value is not above -4.2.

On to A24U A28G A29U C93G C114U, for which the “polymerase ribozyme fitness (log ratio)” value was not above -4.2.

In the case of A19U C35G C43A U56A G58U C85U A113G A122C U151A, the “polymerase ribozyme fitness (log ratio)” value was not above -4.2.

Regarding C14G A29G U33C A37U U111G G124U U134A, the “polymerase ribozyme fitness (log ratio)” value is not above -4.2.

As for C87A A97U, the “polymerase ribozyme fitness (log ratio)” value was not above -4.2.

As for U53A G94C C105A C118U, the “polymerase ribozyme fitness (log ratio)” value was not above -4.2.

Regarding C10G C69G G83C, the “polymerase ribozyme fitness (log ratio)” value is not above -4.2.

Turning to A73G C96U, the “polymerase ribozyme fitness (log ratio)” value was -0.103.

For the variant C32A G65A G88A C118U A120C A142G U144C, the “polymerase ribozyme fitness (log ratio)” value is not above -4.2.

In the case of U33G, the “polymerase ribozyme fitness (log ratio)” value is -2.4.

U53A U55A: the “polymerase ribozyme fitness (log ratio)” value was -2.2.

In the case of A12U C27U C38U G59U C63A C93A, the “polymerase ribozyme fitness (log ratio)” value is -4.12.

Regarding A47G G50C G71C G94A U134C, the “polymerase ribozyme fitness (log ratio)” value is not above -4.2.

As to U15G U55A, the “polymerase ribozyme fitness (log ratio)” value was -0.257.

For the variant A17U A24U G83C, the “polymerase ribozyme fitness (log ratio)” value was found to be 0.0208.

In the case of U4C A60U G74A C93U A106U A107U A150C, the “polymerase ribozyme fitness (log ratio)” value is not above -4.2.

In the case of C96A G133U, the “polymerase ribozyme fitness (log ratio)” value was -3.9.

As for C85U U134C, the “polymerase ribozyme fitness (log ratio)” value is -1.76.

On to A28U U44A C87G A106C, for which the “polymerase ribozyme fitness (log ratio)” value was not above -4.2.

As to G11C C38A G59A C125G, the “polymerase ribozyme fitness (log ratio)” value was -2.58.

In the case of G92A A106G, the “polymerase ribozyme fitness (log ratio)” value was -2.36.
